Positions count from the first letter of the chain named.
T1: human CEACAM1 expressed on CHO cells (human, UniProt P13688 35-526)
T1 construct: whole, on cells; also called CHO-CEACAM1; CEACAM1 on cells
T1 sequence (looked up): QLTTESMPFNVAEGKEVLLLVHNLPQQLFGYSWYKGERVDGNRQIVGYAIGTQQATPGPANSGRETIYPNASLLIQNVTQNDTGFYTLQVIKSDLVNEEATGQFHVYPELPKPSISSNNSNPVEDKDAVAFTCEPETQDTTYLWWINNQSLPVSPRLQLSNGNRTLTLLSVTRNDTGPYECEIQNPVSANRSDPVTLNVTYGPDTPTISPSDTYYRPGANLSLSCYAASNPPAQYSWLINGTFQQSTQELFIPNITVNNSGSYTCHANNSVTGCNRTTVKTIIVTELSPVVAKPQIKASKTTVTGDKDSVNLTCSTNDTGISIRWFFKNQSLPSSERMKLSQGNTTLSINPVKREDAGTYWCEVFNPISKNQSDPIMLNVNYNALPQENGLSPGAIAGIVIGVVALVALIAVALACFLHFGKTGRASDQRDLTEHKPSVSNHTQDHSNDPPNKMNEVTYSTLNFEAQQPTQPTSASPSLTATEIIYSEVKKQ

T2: human CEACAM5 (hCEACAM-5, #4128-CM-050, R&D Systems) (human, UniProt P06731 35-685)
T2 construct: Bought protein; also called Human CEACAM5-His; monomeric human CEACAM5-His
T2 sequence (looked up): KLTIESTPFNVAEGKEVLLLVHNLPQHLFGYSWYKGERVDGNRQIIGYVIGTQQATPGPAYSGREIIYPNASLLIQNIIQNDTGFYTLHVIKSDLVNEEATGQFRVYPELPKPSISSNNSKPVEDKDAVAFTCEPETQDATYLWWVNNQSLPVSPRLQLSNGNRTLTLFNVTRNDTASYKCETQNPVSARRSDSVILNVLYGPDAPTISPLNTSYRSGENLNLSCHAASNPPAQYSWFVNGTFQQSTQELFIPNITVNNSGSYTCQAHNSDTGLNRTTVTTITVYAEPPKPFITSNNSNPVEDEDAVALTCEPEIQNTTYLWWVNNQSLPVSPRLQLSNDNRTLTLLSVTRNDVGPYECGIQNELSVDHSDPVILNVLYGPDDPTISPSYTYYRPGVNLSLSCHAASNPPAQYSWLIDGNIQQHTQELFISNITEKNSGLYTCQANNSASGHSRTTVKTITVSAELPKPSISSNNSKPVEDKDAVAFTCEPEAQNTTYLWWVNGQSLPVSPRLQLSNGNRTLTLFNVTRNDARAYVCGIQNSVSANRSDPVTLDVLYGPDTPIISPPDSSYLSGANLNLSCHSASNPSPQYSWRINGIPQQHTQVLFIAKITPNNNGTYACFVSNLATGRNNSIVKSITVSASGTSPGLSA

T3: CEACAM-8 (#9639-CM-050, R&D Systems) (UniProt P31997 35-320, limits assumed)
T3 construct: Bought protein
T3 sequence (looked up): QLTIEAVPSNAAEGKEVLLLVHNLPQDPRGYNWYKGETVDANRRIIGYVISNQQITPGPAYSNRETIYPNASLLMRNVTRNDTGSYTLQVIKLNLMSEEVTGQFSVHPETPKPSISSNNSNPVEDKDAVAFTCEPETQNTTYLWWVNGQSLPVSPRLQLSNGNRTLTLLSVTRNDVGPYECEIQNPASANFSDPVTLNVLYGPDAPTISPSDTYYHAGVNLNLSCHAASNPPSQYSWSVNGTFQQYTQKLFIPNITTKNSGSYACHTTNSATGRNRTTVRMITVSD

T4: human CEACAM5 expressed on cells (CHO-CEACAM5; MKN45, LS174T tumor cells) (human, UniProt P06731 35-685, GPI anchor on the C-terminal residue (685); heavily N-glycosylated)
T4 construct: also called CEACAM5 on cells; CEA expressed on cells
T4 sequence: T2 sequence (looked up)

B1: ffAC_05337 (bispecific antibody, human IgG1, kappa, L234A L235A)
heavy: not shown
light: DIQMTQSPSSLSASVGDRVTITCRASQSISSYLNWYQEKPGKAPKLLIYAASSLQSGVPSRFSGSGSGTDFTLTISSLQPEDFATYYCQQAGNPHTFGQGTKLEIKRTVAAPSVFIFPPSDEQLKSGTASVVCYLNNFYPREAKVQWKVDNALQSGNSQESVTEQDSKDSTYSLWSTLTLSKADYEKHKVYACEVTHQGLSSPVTKSFNRGEC
chain: EVQLLESGGGLVQPGGSLRLSCAASGFTFSTYGMHWVREAPGKGLEWLSYISGGSSYIFYADSVKGRFTISRDNSKNTLYLQMNSLRAEDTAVYYCARILRGGSGMDLWGQGTLVTVSSASTKGPSVFPLAPSSKSTSGGTAALGCLVKDYFPEPVTVSWNSGALTSGVHTFPAVLQSSGLYSLTSVVEVPSSSLGTQTYICNVNHKPSNTKVDKKVEPKSC
B2: Multi41 (bispecific antibody)
heavy 1: not shown
light: DIQMTQSPSSLSASVGDRVTITCRASQSISSYLNWYQEKPGKAPKLLIYAASSLQSGVPSRFSGSGSGTDFTLTISSLQPEDFATYYCQQWRSHLFTFGQGTKLEIKRTVAAPSVFIFPPSDEQLKSGTASVVCYLNNFYPREAKVQWKVDNALQSGNSQESVTEQDSKDSTYSLWSTLTLSKADYEKHKVYACEVTHQGLSSPVTKSFNRGEC
heavy 2: B1 chain
notes: Optimized RUBY format; copies: 2 + 2 + 2
B3: Multi40 (bispecific antibody)
heavy 1: not shown
light: DIQMTQSPSSLSASVGDRVTITCRASQSISSYLNWYQEKPGKAPKLLIYAASSLQSGVPSRFSGSGSGTDFTLTISSLQPEDFATYYCQQSSHGPLLTFGQGTKLEIKRTVAAPSVFIFPPSDEQLKSGTASVVCYLNNFYPREAKVQWKVDNALQSGNSQESVTEQDSKDSTYSLWSTLTLSKADYEKHKVYACEVTHQGLSSPVTKSFNRGEC
heavy 2: B1 chain
notes: as for B2
B4: Multi42 (bispecific antibody, human IgG1, kappa, L234A L235A)
heavy: not shown
light: EIVLTQSPGTLSLSPGERATLSCRASQSVSSSYLAWYQEKPGQAPRLLIYGASSRATGIPDRFSGSGSGTDFTLTISRLEPEDFAVYYCQQYWYPLTFGQGTKLEIKRTVAAPSVFIFPPSDEQLKSGTASVVCYLNNFYPREAKVQWKVDNALQSGNSQESVTEQDSKDSTYSLWSTLTLSKADYEKHKVYACEVTHQGLSSPVTKSFNRGEC
chain: B1 chain
B5: AC_05337 (bispecific antibody)
heavy 1: not shown
light: B1 light
heavy 2: B1 chain with K65R, K76E, T78A, T185S
B6: Multi39 (bispecific antibody)
heavy 1: not shown
light: not shown
heavy 2: EVQLLESGGGLVQPGGSLRLSCAASGFTFYDHAMSWVREAPGKGLEWVSAISGSYGSTGYADSVKGRFTISRDNSKNTLYLQMNSLRAEDTAVYYCARWGGWAGDIDYWGQGTLVTVSSASTKGPSVFPLAPSSKSTSGGTAALGCLVKDYFPEPVTVSWNSGALTSGVHTFPAVLQSSGLYSLTSVVEVPSSSLGTQTYICNVNHKPSNTKVDKKVEPKSC
notes: as for B2

Columns and labels:
[1] = molecular target: human CD40 expressed on cells (CD40 reporter cells, HEK Blue CD40L cells, B cells, Raji cells) (human, UniProt P25942 21-277); experiment: cell-based or functional assay
[2] = molecular target: T1, human CEACAM1 expressed on CHO cells; experiment: flow cytometry on CEACAM1-transfected CHO cells, fluorochrome-conjugated anti-human IgG [1/2) B]
Source text: The human CEACAM5 and CEACAM1 genes were cloned into pcDNA3.1, and the vector was subsequently stably transfected into CHO cells. […] Binding of the antibodies was detected using fluorochrome-conjugated anti-human IgG and analyzed using flow cytometry.

[3] = molecular target: T2, human CEACAM5 (hCEACAM-5, #4128-CM-050, …); experiment: dual target ELISA; hCEACAM-5 coated, bsAb titrated, detection with biotinylated hCD40-muIg and streptavidin-HRP, luminescence; signal needs both targets [1/2) B]
Description: (§1) 96-well plates were coated with 0.5 μg/mL antigen, hCEACAM-1 (2244-CM-050, R&D Systems), hCEACAM-5 (4128-CM-050, R&D Systems), hCEACAM-6 (3934-CM-050, R&D Systems) or CEACAM-8 (9639-CM-050, R&D Systems) in PBS over night at 4° C. After washing in PBS/0.05% Tween 20 (PBST), the plates were blocked with PBST, 2% BSA for at least 30 minutes at room temperature before a second round of washing. RUBY bsAbs, diluted in PBST, 0.5% BSA, were then added and allowed to bind for at least 1 hour at room temperature. […] Finally, a final round of washing was performed and bound complexes detected using SuperSignal Pico Luminescent as substrate and luminescence signals were measured using Fluostar Optima.

[4] = molecular target: T3, CEACAM-8 (#9639-CM-050, R&D Systems); experiment: ELISA; antigen coated at 0.5 µg/mL, bsAb titrated, anti-human kappa-HRP, luminescence [3/7) Multi40]
Description: as §1

[5] = molecular target: T4, human CEACAM5 expressed on cells …; experiment: flow cytometry on LS174T tumor cells (intermediate CEACAM5), fluorochrome-conjugated anti-human IgG [2/3) E]
[6] = molecular target: T2, human CEACAM5 (hCEACAM-5, #4128-CM-050, …); experiment: ELISA; antigen coated at 0.5 µg/mL, bsAb titrated, anti-human kappa-HRP, luminescence [3/7) Multi39]
Description: as §1

Chain of human CD40 expressed on cells (CD40 reporter cells, HEK Blue CD40L cells, B cells, Raji cells) (P25942 21-277): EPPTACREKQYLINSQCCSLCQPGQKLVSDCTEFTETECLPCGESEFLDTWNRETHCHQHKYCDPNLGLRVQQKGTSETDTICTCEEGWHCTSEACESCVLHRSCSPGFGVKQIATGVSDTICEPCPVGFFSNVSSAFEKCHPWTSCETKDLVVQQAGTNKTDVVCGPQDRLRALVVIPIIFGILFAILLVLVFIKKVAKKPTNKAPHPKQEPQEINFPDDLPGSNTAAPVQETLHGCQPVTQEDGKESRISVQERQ

EC50 (nM), HEK Blue CD40L SEAP reporter, CHO-CEACAM5 crosslinking, 0 Raji sink cells/well [1] | EC50 (nM), HEK Blue CD40L SEAP reporter, CHO-CEACAM5 crosslinking, 10 000 Raji sink cells/well [1] | EC50 (nM), HEK Blue CD40L SEAP reporter, CHO-CEACAM5 crosslinking, 30 000 Raji sink cells/well [1] | EC50 (nM), HEK Blue CD40L SEAP reporter, CHO-CEACAM5 crosslinking, 90 000 Raji sink cells/well [1] | other results | Binder
0.04 nM | 0.08 nM | 0.11 nM | 0.41 nM | – | B1
0.03 nM | 0.06 nM | 0.13 nM | 0.36 nM | binding result [2]: no binding (tested: 400 nM) | B2
– | – | – | – | EC50 (read off the curve) [3]: ~600 pM; binding result [4]: no binding (tested: 100 nM) | B3
0.04 nM | 0.06 nM | 0.11 nM | 0.36 nM | – | B4
– | – | – | – | EC50 (read off the curve) [5]: ~4000 pM | B5
– | – | – | – | EC50 (read off the curve) [6]: 1000 to 2000 pM | B6
